From patent EP0730609B1

Target: recombinant human IL4 (E. coli, non-glycosylated) (human) (UniProt P05112)
Test: cell-based or functional assay

recombinant human IL4 (E. coli, non-glycosylated) (human), sequence (P05112 25-153 limits assumed): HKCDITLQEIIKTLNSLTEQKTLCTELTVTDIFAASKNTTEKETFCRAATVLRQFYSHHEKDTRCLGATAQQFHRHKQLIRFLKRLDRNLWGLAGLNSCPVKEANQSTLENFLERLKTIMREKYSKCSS

B cell (inhibition of IL4-stimulated B lymphocyte proliferation), IC50: 0.079 nM | IgE synthesis (inhibition of IL4-driven IgE secretion), IC50: 0.406 nM | T cell (inhibition of IL4-stimulated T lymphocyte proliferation), IC50: 0.04 nM
B1: humanized 3B9 (IgG4) (antibody, from another filing, V domains shown)
VH: QVTLRESGPALVKPTQTLTLTCTFSGFSLSTSGMGVSWIRQPPGKGLEWLAHIYWDDDKRYNPSLKSRLTISKDTSRNQVVLTMTNMDPVDTATYYCARRETVFYWYFDVWGRGTPVTVSS
VL: IVMTQSPDSLAVSLGERATINCKASQSVDYDGDSYMNWYQQKPGQPPKLLIYAASNLESGVPDRFSGSGSGTDFTLTISSLQAEDVAVYYCQQSNEDPPRFGGGTKVEIKR
